Data from the RNAGym collection of RNA variant scans (doi:10.7554/elife.80360).

B1: HDV Ribozyme (parent)
chain: GGCCGGCAUGGUCCCAGCCUCCUCGCUGGCGCCGGCUGGGCAACAUUCCGAGGGGACCGUCCCCUCGGUAAUGGCGAAUGGGACCCA

Variants of: B1
Experiment: self-cleavage, relative activity (ratio to wild type); higher = more cleavage; co-transcriptional

Variant | self-cleavage
GGCCGGCAUAGUCCCAGCCUCCUCGCUGGCGCCGGCUGGGCAUCAUUCCGAGGGGACCGUCCCCUCGGUAAUGGCGAAUGGGACCCA | 0.355
GGCCGGCAUGGUCCCAGCGUCCUCGCUGGCGCCGGCUGGGCAACAUUCCGAGGGGACCGUCCCCUCGGUAAUGGCGAUUGGGACCCA | 0.0773
GGCCGGCAUGGUCCCAGCCUCCUCGCUGGCGCGGGCUUGGCAACAUUCCGAGGGGACCGUCCCCUCGGUAAUGGCGAAUGGGACCCA | 0.246
GGCCGGCAUGGUCCCAGCCUCCUCGCUGGCGCCGGCAGGGCAACAUUCCGAGGGGACCGUCCCCUCGGUAAUGGCGAAUGGAACCCA | 0.138
GGACGGCAUGGUCCCAGCCUCCUCGCUGGCGCCGGCUGGGCAACAUUCCGAGGGGACCGUCCCCUCGGUAAUGGCGAAUGGGACACA | 0.646
GGCCGGCAUGGUCCCAGCCUCCUCGCUGGCGCAGGCUGGGUAACAUUCCGAGGGGACCGUCCCCUCGGUAAUGGCGAAUGGGACCCA | 0.163
GGCCGGCAUGGUCCCAGCCUCCUCGCUGGCGCCGGCUGGGCAUCAUUCCGAGGGGACCGUCCCCUCGGUAAUGGCGAAUGGGCCCCA | 0.0923
GGCCGGCAUGGUCCCAGCCUCCUCGCUGGCGCCGGCUGGGCAACAAUCCGAGGGGACCGUCCCCUCGGUAAUGGCGAAUGGGUCCCA | 0.277
CGCCGGCAUGGUCCCAGCCUCCUCGCUGGCGCCGGCUGGGCAACAUUCCGAGGGGACCCUCCCCUCGGUAAUGGCGAAUGGGACCCA | 0.365
GGCCGGCAUGGUCCCAGCCUCCUCGCUGGCGCCGGCAGGGCAACAUUCCGAGGGGACCGUCCCCUCGGUAAUGUCGAAUGGGACCCA | 0.208
GGCCGGCAUGGUCCCAGCGUCCUCGCUGGCGCCGGCUGGGCAACAUUCCGAGGGGACCGUCCCCUCGGUAAUGGCGAAUUGGACCCA | 0.0902
GGCCGGCACGGUCCCAGCCUCCUCGCUGGCGCCGGCUGGGCAACAUUCCGAGGGGACCGUCCCCUCGGUAAUGGCGAAUGGGCCCCA | 0.475
GGCCGGCCUGGUCCCAGCCUCCUCGCUGGCGCCGGCUGGGCAACAUUCCGAGGGGACCGUCCCCUCGGUAAUGGCCAAUGGGACCCA | 0.705
GGCCGGCAUGGUCCCAGCCUCCUCGCUGGCGCCGGCUGGGCAACAUUCCGAGGGGACCGUCCCCUCGGAAAUGGGGAAUGGGACCCA | 0.138
GGCCGGCAUGGUCCCAGCCUCCUCGCUGGCGCGGGCUGGGCAACAUUCCGAGGGGACCGUCCCCUCGGUAAUGGCGGAUGGGACCCA | 0.138
GGCCGGCAUGGUCCCAGCCUCCUCGCUGGCGCCGACUGGGCAACAUUCCGAGGGGACCGUCCCCUCGGUAAUGGCGAAUGGGACCCU | 0.391
UGCCGACAUGGUCCCAGCCUCCUCGCUGGCGCCGGCUGGGCAACAUUCCGAGGGGACCGUCCCCUCGGUAAUGGCGAAUGGGACCCA | 0.41
GGCCGGCAUGGUCUCAGCCUCCUCGCUGGCGCCGGCUGGGCAACAUUCCGAGGGGACCGUCCCCUCGGUAAUGGCGAAUCGGACCCA | 0.314
GGCCGGCAUGGUCCCAGCCUCCUCGCUGGCGCCGGCUGGGCAACAUUCCGAGGGGACCGUCCCCCUGGUAAUGGCGAAUGGGACCCA | 1.04
GGCCGGCAUGGUCCCAGCUUCCUCGCUGGCGCCGGCUGGGCAACAUUCCGAGGGGAUCGUCCCCUCGGUAAUGGCGAAUGGGACCCA | 0.165
GGCCGGCCUGGUCCCAGCCUCCUCGCUGGCGCCGGCUGGGCAACAUUCCGAGGGGACCGUCCCCUCGGUUAUGGCGAAUGGGACCCA | 0.623
GGCCGGCAUGGUACCAGCCUCCUCGCUGGCGCCGGCUGGGCAACAUUCCGAGGGGACCGUCCCAUCGGUAAUGGCGAAUGGGACCCA | 0.264

Variant | self-cleavage
GGCCGGCAUGGUCCCAGCCUCCACGCUGGCGCCGGCUGGGCAACAUUCCGAGGGGACAGUCCCCUCGGUAAUGGCGAAUGGGACCCA | 1.12
GGCCGGCAUGGUCCCAGCAUCCUCGCUGGCGCCUGCUGGGCAACAUUCCGAGGGGACCGUCCCCUCGGUAAUGGCGAAUGGGACCCA | 0
GGCCGGCAUGGUGCCAGCCUCCUCGCUGGCGCCGGCUGGGCAACAUUCCGAGGGGACCGUCCCCUCGUUAAUGGCGAAUGGGACCCA | 0.0978
GGCCGGCAUGGUCCCAGCCUCCUCGCGGGCGCCGGCUGGGCAUCAUUCCGAGGGGACCGUCCCCUCGGUAAUGGCGAAUGGGACCCA | 0.415
GGCCGGCAUGGUCCCAGCCUCCUCGCUGGCGCCGGCUGGGCAACAUUCCGAGCGGACCGUCCCCUCGGUAAUGGCGAAUGCGACCCA | 0.0665
GGCCGGCAUGGUCCCAGCCUCCUCGCUGGCGCCGGCUGGGCAACAUUCCGAGGGGACCGUCCCCUCGGGAACGGCGAAUGGGACCCA | 0.485
GGCCGGCAUGGUUCCAGCCUCCUCGCUGGCGCCGGCUGGGCAACAUUCCGAGCGGACCGUCCCCUCGGUAAUGGCGAAUGGGACCCA | 0.831
GGCCGGCAUGGUCCCAGCCUCCUCGCUUGCGCCGGCUGGGCAACAUUCCGAGGGGACCGUACCCUCGGUAAUGGCGAAUGGGACCCA | 0.201
GGCCGGCAUGGUCCCAGCCUCCUCGCUGGCGCCGACUGGGCAACAUUCCGAGGGGACCGUCCCCUCGGUAAUGGAGAAUGGGACCCA | 0.151
GGCCGGCAUGGUCCCAGCCUCCUCGCUGGCGCCGGCUGGGCAACAUUCCGAGGGGACCGUUCCCUGGGUAAUGGCGAAUGGGACCCA | 0.529
GGCCGGCAUGGUCCCAGCCUCCUCGCUGGCGCCGGCUGGGCAAAAUUCCGAGGGGGCCGUCCCCUCGGUAAUGGCGAAUGGGACCCA | 0.875
GGCCGGCAUGGUCCCAGCCUCCUCGCUGGCGCCGGCUGGGCAACAUUCCGAGGGGACCGUCCCCUCGUUAAUGGCGAAGGGGACCCA | 0.374
GGCCGGCAUGGUUCCAGCCUCCUCGCUGGCGCCGGCUGGGCAACAUUCCGAGGUGACCGUCCCCUCGGUAAUGGCGAAUGGGACCCA | 0.578
GGCCGGCAUGGUCCCAGCCUCCUCGCUGGCGCCGGCUGGGCAACAUUCCGAGGGGAUCGUCCCCUCGGUAAUGGCGAAUGUGACCCA | 0.353
GGCCGGCCUGGUCCCAGCCUCCUCGCUGGCGCCGGCUGGGCAACAUUCCGACGGGACCGUCCCCUCGGUAAUGGCGAAUGGGACCCA | 0.957
GGCCGGCAUGGUCCCAGCCUCCUCGCUGGCGCCGGCUGGGCAACAUUCCGCGGCGACCGUCCCCUCGGUAAUGGCGAAUGGGACCCA | 0.787
GGCCGGCAUGGUCCCAGCCUCCUCGCUGGCGCCGGCUGGGCCACAUUCCGAGGGGACCGUCCCCUCGGUAAUGGCGAGUGGGACCCA | 0.317
GGCCGGCAUGGUCCCAGCCUCCACGCUAGCGCCGGCUGGGCAACAUUCCGAGGGGACCGUCCCCUCGGUAAUGGCGAAUGGGACCCA | 0
GGCCGGCAUGGUCCCAGCCUCGUCGCUGGCGCCGGCUGGGCAACAUUCCGAGGGGACCGUCCCCACGGUAAUGGCGAAUGGGACCCA | 0.0504
GGCCGGCAUGGUCCCAGCCUCCUCGCUGGCGUCGGCUGGGCAACAUUCCGAGGGGAGCGUCCCCUCGGUAAUGGCGAAUGGGACCCA | 0.975
GGCCGGCAUGCUCCCAGCCUCCUCGCUGGCGCCGGCUGGUCAACAUUCCGAGGGGACCGUCCCCUCGGUAAUGGCGAAUGGGACCCA | 0.189
GGCCGGCAUGGUCCCAGCCUCCUCGCUGGCGCCGGCUGGGCGACAUUCCGAGGGGACCGUCCCGUCGGUAAUGGCGAAUGGGACCCA | 0.332

Variant | self-cleavage
GGCCGGCAUGGUCCCAGCCUCCUCGCUGGCGCCGACUGGGCAACAUUCCGAGGGGACCGUCGCCUCGGUAAUGGCGAAUGGGACCCA | 0.448
GGCCGGCAUGGUCCCAGCCUCCUCGCUGGCGUCGGCUGGGCAACAUUGCGAGGGGACCGUCCCCUCGGUAAUGGCGAAUGGGACCCA | 1.04
GACCGGCAUGGUCCCAGCCGCCUCGCUGGCGCCGGCUGGGCAACAUUCCGAGGGGACCGUCCCCUCGGUAAUGGCGAAUGGGACCCA | 0
GGCCGGCAUGGCUCCAGCCUCCUCGCUGGCGCCGGCUGGGCAACAUUCCGAGGGGACCGUCCCCUCGGUAAUGGCGAAUGGGACCCA | 0
GGCCGGCAUGGUCCCAGCCUCCUCGCUGGAGCCGGCUGGGCAACAUUCCGAGGGGACCGUCCCCUCGGUAAUGGCGAAUGGGACCCU | 0.537
GGCCGGCACGGUCCCAGCCUCCUCGCUGGCGCCGGCUGGGCAACCUUCCGAGGGGACCGUCCCCUCGGUAAUGGCGAAUGGGACCCA | 0.957
GGCCGGCAUGGUCCCAGCCUCCUCGCUGGCGCUGGCUGGGCAACUUUCCGAGGGGACCGUCCCCUCGGUAAUGGCGAAUGGGACCCA | 0.57
GGCCGGCAUGGACCCAGCCUCCUCGCUGGCGCCGGCUGGGCAACAUUCCGAGGGGACCGUCCCCUCGGUAAUGGCGAUUGGGACCCA | 0.128
GGCCGGCAUGGUCCCAUCCUCCUCGCUGGCGCCGGCUGGGCAACAUUCCGAGGGGACCGUCCCCUCGCUAAUGGCGAAUGGGACCCA | 0.542
GGCCGGCAUGGUCCCAGCCUCCUCGCUGGCGCCGGCUGGGCAACAUUCCGAGGGGACCGACCCCUAGGUAAUGGCGAAUGGGACCCA | 0.972
GGCCGGCAUGGUCCCAGCCUCCUCGCUGGCGCCGGCUAGGCAACAGUCCGAGGGGACCGUCCCCUCGGUAAUGGCGAAUGGGACCCA | 0.111
GGCCGGCAUGGUCCCAGCCUCCUCGCUGGCGCCGGCUGGGCAACAUUCCGAGGGGACCGUCCCCUCGGUAAUGGCGAACGGGACGCA | 0.287
GGCCGGCAUGGUCCCAGCCUCCUCGUUGGCGCCGGCUGGGCAACAUUCCGAGGGGACCGUCCCCUCGGUAAUGGUGAAUGGGACCCA | 0.113
GGCCGGCAUGGUCCCAGCCUCCUCGCUGGCGCCGGCUGGGCAACAUUCCGAGGGGACCGUCUCCUCCGUAAUGGCGAAUGGGACCCA | 0.923
GGCCGGCAUGGUCCUAGCCUCCUCGCUGGCGCCGGCUGGGCAACAUUCCGUGGGGACCGUCCCCUCGGUAAUGGCGAAUGGGACCCA | 1.08
GGCCGGCAUGGUCCCAGCCUCCACGCUGGCGGCGGCUGGGCAACAUUCCGAGGGGACCGUCCCCUCGGUAAUGGCGAAUGGGACCCA | 0.253
GGCCGACAUGGUCCCAACCUCCUCGCUGGCGCCGGCUGGGCAACAUUCCGAGGGGACCGUCCCCUCGGUAAUGGCGAAUGGGACCCA | 0.318
GGCCGGCAUGGUCCCAGCCUCCUCGCUGGCGCCGGCUGGGCACCAUUCCGAGGGGACCGUCCCCUCGGUAAUCGCGAAUGGGACCCA | 0.309
GGCCGGCAUGGUCCCAGCCUGCUCGCUGGCGCCGGCUGGGCAACAUUCCGAGGGGACCGUCCUCUCGGUAAUGGCGAAUGGGACCCA | 0.0339
GGCCGGCAUGGUCCCAGCCUCCGCGCUGGCGUCGGCUGGGCAACAUUCCGAGGGGACCGUCCCCUCGGUAAUGGCGAAUGGGACCCA | 0.6
